{"source": "the DeepSol protein solubility set", "experiment": "soluble on expression in E. coli; label from the status in PepcDB or PDB records"}
{"sequence": "MSLKRISIKDVALKAGVSIASVSYVLNNKIDSRIPQETIDKVKHAAEELNYRPNNIAKSLKTQRTHIIGLVVADIANPYFSQLARIIEDEANKLGYTLMIGSSDENAEKFEALINMFADRQADGLIIAPVENSEKCLLKLQKQKIPFVLIDRYLSGVEADSIQINNYDISQKVTEHLINGGYKNTLLVAYKTQLQHLLQRTQAFLNTLEKHQIQNSQVLLADKDYIDRDINTGLENMLQNAVKPDAIFFTSNKLAVSGLKKLTQLGINIPQDIAVAAFDETEAYELFPVPLTYVKQPLSAIGTTAVKMLNEKINIKNLPLQNVTLHAELHIGQSTKSKEGHHHHHH", "values": [{"measurement": "soluble on expression in E. coli", "value": "soluble"}]}
{"sequence": "MSNDQIWDLLGHQIQIELDTGDVRRQESTTGHLMTRDPVSQSLLIAKIEENSTSIKSIEWIPSCSVKSIRKLKNTENPEIHVAIEKYFENDGIEGGSSGAEDSEEDIKKRAHRVVNYLKSHHLDVVEKPNGTYIIAGTVRFERPYHNANLYCDIPIVLKRILKLVEEI", "values": [{"measurement": "soluble on expression in E. coli", "value": "not soluble"}]}
{"sequence": "MGSDKIHHHHHHMDFKELFPEVITKQEVKQSEDYIIVEQDGHVLHFPKSSLTKRELYLLQMTPSLEDASSVDSQNPWYRYLVEGRGRLPQSHSAVQFIFIEHQFTLSEELKDFLSPLVINVETIMTINQTQSVMILNQDNFFNATELLTDILPTIENDFNTRLRCYFGNSWTHLQAVDWKELYEEEYKLFTLFLSHKAEQHYCRFPKMALWALANQSPMPSIKAKCLQHILDTSDTSAIIKALWQEQGNLAKTAKALFIHRNSLQYKLDKFTQSSGLNLKILDDLAYAYLISMDT", "values": [{"measurement": "soluble on expression in E. coli", "value": "not soluble"}]}
{"sequence": "MAEAKQWDVKQLDRIVEKMIDTVQHSKDEIFRIGEQSRQEHDHLLRELEEVKRLTVQAIEEADQLEMKARQARRRLSEVSQNFSTHSEQDIREAYEQAHELHMKLTMVREREKQLRLRRDELERRLASLAQIIERADYLVGQITVVLHYLNSDFRQVGELIEGAKQKQEFGLKIIEAQEEERRRLSREIHDGPAQLLAHVLLRSDLVEKVIKERGTEAAIAEIRDFRKMVRSALSEVRRIIYDLRPMALDDLGLVPTLKKYLQTTEEYNKGVHISFVHIGEEIRLPSRMEAAVFRLVQESVQNALKHAEARHIDVKMEVTCDHLLVSVKDDGKGFDPSVKKENAFGLIGMRERVELLGGTLDIRSKIGSGTTVFIRVPLDRSTDKTNKEERKR", "values": [{"measurement": "soluble on expression in E. coli", "value": "not soluble"}]}
{"sequence": "MSLKIAVVQFPGSNCERETMLAVQRAGMTPVEFLWNDSSQKLREMDGYIIIGGFSYEDRSRAGIIAALDPVMKEIKLQSELGKPVLGICNGAQILVETGLVPGLKNYQIGMALTENKRIQDGKILGTGFYNSWIHMRTGDRVRQNAFTRYLSKDSVLSIPAAHAEGRFVMPVKLLQEIEEEGLNAFQYCDAQGNRDDNFPVNPNGSLRNIAAIINKAGNVMAIMPHPERTFAGDPIFHSMKEYIKEKKTFKQQTLSYQPEPVKIIPYDKKDNAHELIVKLIITDNAALTVQNTLRQLGIPVTVNRMMYWHVDTNFPETIEKIKQTGVLYNDRKEYLVTSEHIFSSAAKAFLVKSKDDMIGQQKLQMLRDHFSIDGVDAIHHGVLWMFSSENVKIQELAESILATNIIFNPNAHICYEYQCPEGHHHHHH", "values": [{"measurement": "soluble on expression in E. coli", "value": "soluble"}]}
{"sequence": "MSLKLWKNATFYQMTAEGDQVSAVLTENGQICAVGEAMDLEKQYVANITETIDLEGKVVFPGFVDAHIHLLWYGQALERLNLNQTTTKKEALALIAERTKQIASDEWLFVEGYDENKWSDEQTLISLADLDEVSQTNPILVRRIDYHSVSINSALQEKIADFSETGFDGGGEIVRDKTGEFIGVLRDNATTMAIDSFPAATPSELSAWLEIAITDLWSKGITGAHSEDLHYFTGFASTLAAFRNTIGSNKMPFRAHLLVHHAELAAFSASNESFVSGDAFLELGAMKIFYDGTVGSRTALMSAGYADNPSEKGLQIHSDQAFEDLVKAARKAGLPVAIHILGDQAFANVIRTLRANPPKEGQYDRLIHTPWLTEALIEEATGLPVLFDIQPQFMASDLPWALEVLGDNHPPLAFAWKTLLQAGFPLAGGSDAPIEVPNPFWGIHAAVTRTANADLDGVGYWPEQALTVFEAIQLYTKGAAFASYKTTTRGQIAPGFVADFTILAEDPFQMKQAELRQVSVVMTVVNEQIVYQKKEGHHHHHH", "values": [{"measurement": "soluble on expression in E. coli", "value": "soluble"}]}
{"sequence": "MFFIGIFGIENKQKEVKQLENIYCKTCSTRTMGTLIKSYEYFHIFFIPIFRWNEKYYVMCKRCNSIYEISKEKGKAIENGEINEVNLEDMTLIQEGQVYGKRAVKKVCPNCGKTVDGDYNYCPYCGSEILEHHHHHH", "values": [{"measurement": "soluble on expression in E. coli", "value": "not soluble"}]}
{"sequence": "MKYISPGFVDAHSHIGMIPDGLEWEFQEANDFYSPIAPHLRAVDGFDPYDEAFKEAIAGGVTTVATGPGSANVMGGIGLLAKTYEEGFEKIIKPEAFIKMALGPKRPREYKSKYPYPTTRMGTVALMRTWFKRAREFMEGKIKTDNIDEEEIEMLRLLARALKREIQVKIHLSTSPDEIYAAIRIIKEFNLNATIDHAFGSQLVADMLSREGIPVIYGPPMITRIASFFRYVDDKAPVLLFKKGVNVSIMTDHPVLPEKHLRLLAAVVARNGLSLDDALKLITINPAKALGIDRFVGSLEHHHHHH", "values": [{"measurement": "soluble on expression in E. coli", "value": "not soluble"}]}
{"sequence": "MPDRHVASSETKRGGAGMTDRELSDQAIAVLVDVARTAGRDLNAGQRLELDRLVSDGLVAVSTSGDPAGQRHYRLTVAGQTALDQRGVGANEA", "values": [{"measurement": "soluble on expression in E. coli", "value": "not soluble"}]}
{"sequence": "MAHHHHHHMRNMNDKNNVHNNYYYLKLENVNNGWRNKELKNDITNENIYQFIGKKKKNYSSSEMSKNSYSTCNTNNNIYINYNNNNNMYNNYNNNIYKNLNNRNINYKGYKFKQNYHTNAYVNISKNRNYYYPSESKKLTNEYNKYDFDNLEKRECKIINDESYKIEETTDMENDMLYIHNDSLPSHQPTINNNTQELYHINNYNNNIYFYEPCEKDNYLDSSIKDIYFDIYSNDTSENIKNETNDIINVDQKGNKYEENNINISNNTHEYKTFVNDDKQLLLDHIKRLEYQNNIFLNNMLNMYYVCIDYIKLQDDKIKEHEQVINSQKEFISNLKKQLSSNDNTNVAYNININHINKYKHVTK", "values": [{"measurement": "soluble on expression in E. coli", "value": "not soluble"}]}
{"sequence": "MDSLKCQVDNTVASHNVTIDKSSQDDNHIDNRRYYINIGNTKDSEEVARLQKLILTQNEAESKRTMELLALLNLKNNPEEQKKASAVGPAVDVAQNLRHLSASAGGTRRLRSCHGTYLRAYDKGLKVDMKTGAPGTWENWWVEDRKGKVVFKAIHSPGIFLSAQGNNQLTLDYHVNASEFWTPKKNDNGSWSFQSANGTWLSAHKDGRACLQPHRQAWEEFWLEWW", "values": [{"measurement": "soluble on expression in E. coli", "value": "not soluble"}]}
{"sequence": "MSAMNARQGILSLALKDKPALYSAYMPFVKGGGIFVPTPKRYMLGDEVFLLLTLPDSSERLPVAGKVIWTTPAGAQGNRAAGIGVQFPDGPEGEAVRNKIETLLAGLTTSDKPTHTM", "values": [{"measurement": "soluble on expression in E. coli", "value": "soluble"}]}
{"sequence": "MSAIDCIITAAGLSSRMGQWKMMLPWEQGTILDTSIKNALQFCSRIILVTGYRGNELHERYANQSNITIIHNPDYAQGLLTSVKAAVPAVQTEHCFLTHGDMPTLTIDIFRKIWSLRNDGAILPLHNGIPGHPILVSKPCLMQAIQRPNVTNMRQALLMGDHYSVEIENAEIILDIDTPDDFITAKERYTEILEHHHHHH", "values": [{"measurement": "soluble on expression in E. coli", "value": "soluble"}]}
{"sequence": "MGSDKIHHHHHHENLYFQGMTEKSQEPTAALDAEQVAAYLSQHPEFFVEHDELIPELRIPHQPGDAVSLVERQVRLLRERNIEMRHRLSQLMDVARENDRLFDKTRRLVLDLLDATSLEDVVSTVEDSLRHEFQVPYVSLILFSDSSVSVGRSVSSAEAHQAIGGLLSGGKTVCGVLRPHELAFLFGESDRDEIGSAAVVSLSFQGLHGVLAIGSPDPQHYKSSLGTLFLGYVAEVLARVLPRFSSPLRSVR", "values": [{"measurement": "soluble on expression in E. coli", "value": "soluble"}]}
{"sequence": "MKQINDVSFLLDKRLVVLIEHQSTINENLPYRLLEYITRIYEKIVDKEKKYQKNLVKIPKPEFIVLYNGADPYPDYTELKLSDAFMDIEGLKLTGIDKIPLELIVPVYNINQGHNPEILKKCESLYGYSFFISKIREYQTQGLTLEELITPVIEYCIKNNILKDYLEAHASEVINMIFGEYDREMDIAVNRREAREEGREEGFKEGKLIIAKNLLSEGSTPEFVQRITGLTLDEIEEIGL", "values": [{"measurement": "soluble on expression in E. coli", "value": "not soluble"}]}
{"sequence": "NEYLNNVKSKYEVQKQRIQIQNDTRYMNEIEAHYNELRRFRHDYQNMLISIDEYLKTDDLEGLQEYYQKNLAPVSNRVLKEKYNLEDLSRVKVKSIKSILFSKLSYAQSQEIEVHFDLKEPLIDITVNELDLDIALGIMLDNAIEASVGHADGEIMSAIFIEKNSTVFLIQNNVFEQLPPLWKLKEAGYSTKGKNRGIGLNSLSKIVNRNENMILETRVLGAVFLQRLTVKRVSQND", "values": [{"measurement": "soluble on expression in E. coli", "value": "not soluble"}]}
{"sequence": "MDGDIIDQYRFPSPHPGIDVFFVTYMSQGLKVKGFLAAPKRKGVYDGFLYLRGGIKNVGQVRVPRLVQFASQGFVVFAPLYRGNGGGEGNEDFAGDDRYDALAGFHLLRRHPLVHPGRVHMFGFSRGGAMALHAAVMAEGVCSVAVWGGVADLELTYWERPDLRRMMKRVIGGTPNKCPERYRHRTPLYHLERLKAPVLIIHGGRDENVSIEHAWRLERRLKQLGKPVTAWYFPEFTHYFPPQANRETVQRLTEWMKQQPTM", "values": [{"measurement": "soluble on expression in E. coli", "value": "not soluble"}]}
{"sequence": "SNATAYIIVGLTPKDAEKLQQYGARVASTLAKYSGEVLVKGSVEQLHGKFEHKAQVILEFPSREDAYNWYHSEEYQALISTRDLGMDSQFQLIG", "values": [{"measurement": "soluble on expression in E. coli", "value": "soluble"}]}
{"sequence": "MWHGMGDCCCNPLSMGSVKKLFEEQIPGVYVHSLQLGSSITKDIEHGFYANTNELVYMACIKIKNDPELKNGYNAIGFSQGAQFLRAVAQRCPNPPMKNLVSVGGQHQGVFGAPYCIGDNIMCNGVRRLIDLGAYLPFVQKRVVQAQYWHDPNQVEEYKKRSIFLADINNENNNNPTYKRNLLSLKNLVLVKFNQDHMVVPKDSSWFGFYKDGDIDTILPMNETDLYKEDRIGLKKLHESGRIHFMDVDGDHLQIPRSVLVNDIIKKYFM", "values": [{"measurement": "soluble on expression in E. coli", "value": "not soluble"}]}
{"sequence": "MAAGQNGHEEWVGSAYLFVESSLDKVVLSDAYAHPQQKVAVYRALQAALAESGGSPDVLQMLKIHRSDPQLIVQLRFCGRQPCGRFLRAYREGALRAALQRSLAAALAQHSVPLQLELRAGAERLDALLADEERCLSCILAQQPDRLRDEELAELEDALRNLKCGSGARGGDGEVASAP", "values": [{"measurement": "soluble on expression in E. coli", "value": "soluble"}]}
{"sequence": "MFVRFASAQSVPPGDIQTQPGTKIVFNAPYDDKHTYHIKVINSSARRIGYGIKTTNIKRLGVDPPCGVLDPKEAVLLAVSCDAFAFGQEDTNNDRITVEWTNTPDGAAKQFRREWFQGDGMVRRKNLPIEYNP", "values": [{"measurement": "soluble on expression in E. coli", "value": "soluble"}]}
{"sequence": "MSTGSTKLRNVDAVIKKGKPFSILLLGTDTGALGRGKDFSARTDTMIVATINPKKESMTLTSIPRDTQVMIDGQSQKINAAYTIGGASGAVKSVEKLLDVPIDFYVLLNMGGLKQIINAMGGVTVTPKLTFKYGNANVKKGVKIKLNGAAALDYSRMRYDDPQGDYGRQKRQQQVIMAMVSQSNSLGSIANIEKITKKLAKNMRTDLTWNDMVALDTKYKNASHHAKSYTVQGTDATIDGLSYQVASSSERYKNSKRIRKALGLSNSNLTESVFSETASITTGSSSSSSSSSSTTTSSDTTTYGTSTTQDTTTQDQTTTQDQTTTNQYLEHHHHHH", "values": [{"measurement": "soluble on expression in E. coli", "value": "soluble"}]}
{"sequence": "MKSLSYKRIYKSQEYLATLGTIEYRSLFGSYSLTVDDTVFAMVSDGELYLRACEQSAQYCVKHPPVWLTYKKCGRSVTLNYYRVDESLWRNQLKLVRLSKYSLDAALKEKSTRNTRERLKDLPNMSFHLEAILGEVGRLAP", "values": [{"measurement": "soluble on expression in E. coli", "value": "not soluble"}]}
{"sequence": "MKIKEMVTSEMPRERLLSHGAKSLSNTELLAILINTGRKGFSSIDISNELLKSASNLNELKKSSINDLIKVKGIGLQKAITLKAAFELGERMGRRAENNRIKITQPSDVADYMIPTMKDLTQEHFVILLLNSKNVVIKETCVFKGTLNSSIVHPREIFSIAVRENANAIIAVHNHPSGDVLTIV", "values": [{"measurement": "soluble on expression in E. coli", "value": "not soluble"}]}
